Measured values: patent US20240245805A1 (Orna Therapeutics, Inc., priority 2020, published 2024)

B1: Lesavirus 1 (nucleic acid)
DNA: GTAACTAATAAGCAAGTTTTACTGCCTGCAAACTGCTTCAATGGGACCACCGCTTCGGCGACCCCTTTGTTGAGTTTGTATGTTTTTAAGTAATCTTTGCAACCATACGATTATTTTAGCCGCCTCTCTATAATGATCTTGTTATAGTGGGACGTGAAACATTGGTTTTTCTCACACACGTCCGGTCACCCGGGCGTGTGTTCTTCCGTAAGTCCTATCCACATACCATCGTGGGTAGGCCAGCATGTTTGCACAGGCTGTGACAGTGTGGGTGGGCTTTCCACCTCTCAACAACACACTGAATTGCAATGCACTCACGGAGGAAATGACAATTTGGTTATAGTTTTGAACTGTGCTAGTAATTTCTTTCACATTAAGCCATGTTGCCTGCGGAATCACATGTGGTAACACATGCCTCAGGGCCCAAAAGGCACGGGTTAGCAGCCCCTTCATGGTGTGTTAGAAGTGAAAACACATAGTATGAGCTATAATATCTTTGTTGTCTTCTCTGTAGTGTACCCCGCCAAATGTAAGGATGCCCAGCAGGTACCCATTTTATGGATCTGAGCTGGGGATTGATAGTGTATCTATAAATGCACTGATCAATTTAAAAAGCGTCTAAGTTTGGCACAAACACTGGGGACAGTGTTTTTCCTTTATTCTTTTATTTGATTA
modifications: lipid formulation; source: /note="Description of Unknown: Lesavirus 1 sequence"
B2: Rabovirus A (nucleic acid)
DNA: CTACGGATATTTGCATGACCCGCTTTCTATCGCCCCAACAATCCCCTTTGTAACCACAAGCTTTACTCAGGCTAGCAGCCCGACTAGCTGTTTGGAAGAAAAGGCTAGGGCACACACCAACAACACCGACCCCACTGGTCGAAGGCCGCTTGGCAATAAGACTGGTGGAACAGGGTCGCCTGTAGTTGTTTGGAACATTCTTTCTAATGACTTTGTCAGCGGTGCTACTCACACCGTAACTCTTCTACCCTATCCCCACGCTTGTGGAACTAGGAGGGGATGAGTGATTCAAGTAAGTACTGTCAGAATGGTGAAAATGATCTGATTCTGAAACGCTATGGATCCATCGAAAGATGGGGCTACACGCCTGCGGAACAACACATGGTAACATGTGCCCCAGGGGCCGAAAGCCACGGTGATAGGATCACCCGTGTAGTTTGAGATCATATCAATGTTCATAGTCTAGTAAGATGATTTGAAATCTAACTGAGCTGATGGCTAACTGCTTGTCTTATTGCGGCCTAAGGATGTCCTGCAGGTACCTTTAGATAACCTTAAGAGACTATTGATCTGAGCAGGAGCCAAAGTGGTCTTTCCCAGCTTTGGTTAAAAAACGTCTAAGCCGCGGCAGGGGGCGGGAGGCCCCCTTTCCTCCCAAAACTTAATATTGATTGT
modifications: lipid formulation; Rabovirus A
B3: Porcine reproductive and respiratory syndrome virus 2 (nucleic acid)
DNA: ATGACGTATAGGTGTTGGCTCTATGCCTTGGCATTTGTATTGTCAGGAGCTGTGACCATTGGCACAGCCCAAAACTTGCTGCACAGAAACACCCTTCTGTGATAGCCTCCTTCAGGGGAGCTTAGGGTTTGTCCCTAGCACCTTGCTTCCGGAGTTGCACTGCTTTACGGTCTCTCCACCCCTTTAACC
modifications: lipid formulation; source: /note="Description of Unknown: Porcine reproductive and respiratory syndrome virus 2 sequence"
B4: Shingleback nidovirus 1 (nucleic acid)
DNA: CTGTGAGTACCGACAGGCTCGAAGTCTATTATGAGGCGTCGAAACAGAAAACCTGTAACAACTCCGGTTTCATCTATCACTGCCGTCAAGAGGCAGAAGAGGACGACCACGTGTCACCAGATCACTTGTATCTGTTTCAGTCAGGAAGTCAACTTTTCGACGAAGTTCGACCATTCATCGACCCGCTGAAAAGCGTAGAAGTCGATGAAGATGAGCTCCAAAGAGCCATCGCCGATTTCGACAACCAAAGTGACTGTTTCCACTCCTTCGAGCTCGTGAATTTCGAGCTGAAACAACAAATCAACGAGAACGAGTGGTACGGTTATTATAATTACGACAACCAAAACTGCAAAGTTCAGTTGCCAGTCACATGTCGAATCGAGGACGTAACCTGGGATCAGGTTTACGTG
modifications: Shingleback nidovirus 1
B5: Picornavirales Tottori-HG1 (nucleic acid)
DNA: AGCCATGAACTAGTGTGCGATTCCCACAGTGTTGGTCGAAAGCCCCGCACTGTCTACTCGCATATTTGACTCCAGTCCTTCCGCAGCCAGCGGTTAGGTTCTGGTTAAAGTGCATTATGTGCACGGCGCCACGCAGAACTGCCAGAAATGGTAAGCTGCGCCCAACGCCAACGGTTTGTGTATCCCGTTAGTCACACGTTTACAGCTGTTCGTTAACAGTAGGGTTTTGTCGACCCGGACCCCTTAATGCGCGCGAATTCAACCGCGCCTAGTCGGCAATGGTATCATTTAATCCCATGCACTACGGGAGAAATTTGAGACCAAAGAATTCCTGAGGGCCACTGCTTGCTCTAAGTGCAATGCCTCGGGAGACTTCTGTCAGGAGCCTAGCGGCTTTCAACCGCGACAGCTAACTCCTGCGGGATGTTTGGTGTCCATACTTACTGGCGTCCTCACAACGCTAAGTGGATGTTGTCCACAGGTAGGCAAACACCGAGCCCCACATTCAGGAGACCTGTATGAACGATCCTATCAGCATTAGAGTTGGAATTGGGTGTGCTAACGTCCGCATAAGTGCACCCCGTGGTAACGCTGGGAAACTATCCAGCGCAACGTACTGTCCTCAATGTCTAGGGAAGGACCGCCCTAAGCGTACAACCGGGCCATGTGTCGAGC
modifications: lipid formulation; source: /note="Description of Unknown: Picornavirales Tottori-HG1 sequence"
B6: Sclerotinia sclerotiorum dsRNA mycovirus-L (nucleic acid)
DNA: TTGAATTAATCTTTTACGTTTACGCGCATAAAATCAGGACACATCTCTTGTATACTTTAGTATATCAATGATGTTTTTGTTTTATGCGATTAATCGTAAGAGAACTTCTTTCCATCCGCCTGTATGGGCGGGATAATAAGTTCACCGCCTTGGTCGAGGCGCAAACTTGTATGTGCAAAGGTGAGCTATATGCTCGAAATAGTCGTAACTAACACACAGCCACTACCTGTAGAGCTCTATTGATCCGGAATCCTTTAGTGGGAATGCAGAGCTCACACCGGACCTGCGGGTATCTTCGGCGTTAGGGACTTCTGTTTCAGCCTTGAATCATTTACCTTTATACCTTCTCTGAGGCGCCTGGGCCGGGCGCGATATTAAGTACAAGTCAAGGACATCGCGGGTAGTGGTCTAATCAGCCGCTAGTCCTGCTGGAGAGTTCCAACTTAGTTGGGTGTGGTGCATACTAGCTGGATAGAGTAGGTATGTATTGCTAACGTATGCCGGAGGCTATCCGTCCTCGGTAGAACGTGCCGAGGAGTAGTCTCTGCAGACCCCCGAACGCGTGGGGTCTTTACTTAAATGTAGGCGGAGGGAGCGCTCGTAGGTGGAACGACTGCCTCCCAGTCGAATGCAAGATTTTGCACGCGGACCAGTCTGCCCGGCAATTCCCGGGTG
modifications: source: /note="Description of Unknown: Sclerotinia sclerotiorum dsRNA mycovirus-L sequence"
B7: Jingmen picorna-like virus (nucleic acid)
DNA: TGTGTTTTTGTCAAGATAATTGTTCTGTGATTAACAGTGATTGTGGTTCGTGTAATGCGACGCAGTCAAATGCTAGTTTTGATGAAGTGTATGAGAGAGTGGAAAACTTATCTCATAAGAAGATTGAAGAGTGTGTAGATCAGGCTATTGATCGAGCTTCTAAGCTTCGTGATTACAAGCTTAATGTTCACAATGGCTCCCGACGGGAATCATCTGATCCTCTCTTTATTTCGCCCCATTCGTTGTTATCGCTTGGGGTATCTAAGTTTGTTGCGTTTGAGCAGCATCACAGTTTCGCTTCAGTTGAGTCTCTGAAGTTGCTTGCTCTGTCT
modifications: source: /note="Description of Unknown: Jingmen picorna-like virus sequence"
B8: Miniopterus schreibersii picornavirus 1 (nucleic acid)
DNA: GTTGTCGACCCGTTGCTTGGTTTAAGCATGAGGTGGATTCCCCCGATTATGTCTACCCGTTACTATGGCGGGCGGTCGTTTCAGGGTGTTTCTACTGAGGACTGCACCAAGTCTTTATCTTTTATTCTCAGATCTCCGGCTGTTTGACGCTTGTAGGACAGCAGGACTATTTTCTCTTAATCTTTTTCTACCCACTAGGGTCCTATCCTAGTGGAGGGAGGGTGCCACCCCTTCTCTCTTTAGAGAGTGCGCCTGGCGGTCTTTCCGTCTCTGGAAAAAGGAGCACATGGCATGCTACAATTGGCACAAGAAAACAAGCTTTGCGGATTCTTTCTTTGTACTAGAGGAAGCTGTAGCGACCCTGTATGGCGAGCGGACTCCCCTCTCGGCGACGAGAGCCTCTCGGGCCAAAAGCCAAGTGTTAATAGCACCCATACAGGCGGCAGTACCCCACTGCCCTTTCTCAACATACAATGACTGATGAACCACTGTTGGTTTTTCTGACACCTTTGTAGTAGGATTCCAAGGAATGTCCTGAAGGTACCCTGTTAGCTTACGCGCAGGATCTGATCAGGAGTCTCTTTACAGTGCTGTACACTGTGCAAGGGATTAAAAATTGTTTGAGGAATCCCCGAGATAGTGGTCTATCTCTTCCTATTTTGTTTTACAGACACG
modifications: lipid formulation; source: /note="Description of Unknown: Miniopterus schreibersii picornavirus 1 sequence"
B9: Seneca valley virus (nucleic acid)
DNA: TTTGAAATGGGGGGCTGGGCCCTGATGCCCAGTCCTTCCTTTCCCCTTCCGGGGGGTTAACCGGCTGTGTTTGCTAGAGGCACAGAGGGGCAACATCCAACCTGCTTTTGCGGGGAACGGTGCGGCTCCGATTCCTGCGTCGCCAAAGGTGTTAGCGCACCCAAACGGCGCACCTACCAATGTTATTGGTGTGGTCTGCGAGTTCTAGCCTACTCGTTTCTCCCCCGACCATTCACTCACCCACGAAAAGTGTGTTGTAACCATAAGATTTAACCCCCGCACGGGATGTGCGATAACCGTAAGACTGGCTCAAGCGCGGAAAGCGCTGTAACCACATGCTGTTAGTCCCTTTATGGCTGCAAGATGGCTACCCACCTCGGATCACTGAACTGGAGCTCGACCCTCCTTAGTAAGGGAACCGAGAGGCCTTCGTGCAACAAGCTCCGACACAGAGTCCACGTGACTGCTACCACCATGAGTACATGGTTCTCCCCTCTCGACCCAGGACTTCTTTTTGAATATCCACGGCTCGATCCAGAGGGTGGGGCATGACCCCTAGCATAGCGAGCTACAGCGGGAACTGTAGCTAGGCCTTAGCGTGCCTTGGATACTGCCTGATAGGGCGACGGCCTAGTCGTGTCGGTTCTATAGGTAGCACATACAAAT
modifications: source: /note="Description of Unknown: Seneca valley virus sequence"

test system: HEK293 cells; format: cell-based, human; conditions: circular RNA encoding Gluc with the listed IRES (UTR truncated to 675 nt) transfected into HEK293 cells; supernatant after 24 hours

Molecule	Expression (luminescence from secreted Gluc protein)
B1	6.37E+06
B2	2.88E+06
B3	1.29E+05
B4	2.62E+05
B5	9.54E+04
B6	1.69E+05
B7	9.32E+04
B8	6.05E+06
B9	1.46E+07
